The values below come from US20260028401A1 (SHENGHE CHINA BIOPHARMACEUTICAL, published 2026).

For test [1], the target named is T1, Human LILRB2/CD85d/ILT4 Protein, His Tag (Manufacturer: KACTUS, Cat: LIL-HM4B2) (human, UniProt Q8N423 22-460, limits assumed).
T1 construct: Bought recombinant protein; not shown: His tag
Briefly: BLI (ForteBio, AHC biosensors), ILT4 His protein loaded as written, antibody at 100 nM, 180 s association, 200 s dissociation; non-humanized antibody of the invention. The method, then: AHC Biosensors (Manufacturer: ForteBio. Inc., Cat: 18-5060) were pre-wetted for 20 min using PBST buffer and added to Human LILRB2/CD85d/ILT4 Protein, His Tag (Manufacturer: KATUS, Cat: LIL-HM4B2) protein diluted to 20 μg/mL using PBST to a target protein loading thickness of 1 nm. The antibody of the present invention and the antibody (humanized antibody) of the present invention (VHH and Fc sequences were SEQ ID NO: 6 and SEQ ID NO: 7, respectively) was diluted to 100 nM using PBST and added to the above sensor, and bound for 180 s and dissociated for 200 s.
(In general: BLI is a label-free optical method that tracks binding on a fibre tip over time.)

Test [2] has as its target T2, ILT4 on CHO-ILT4 cells (Manufacturer: Kang Yuan Bochuang, Cat: KC-1473) (UniProt Q8N423 22-597, limits assumed).
T2 construct: whole, on cells; also called ILT4 cell line
Briefly: flow cytometry on CHO-ILT4 cells, 7-point 5-fold titration, anti-VHH PE detection. (In general: Flow cytometry measures light scatter and fluorescence of single cells or particles in a stream.)

T2 sequence (Q8N423 22-597 limits assumed): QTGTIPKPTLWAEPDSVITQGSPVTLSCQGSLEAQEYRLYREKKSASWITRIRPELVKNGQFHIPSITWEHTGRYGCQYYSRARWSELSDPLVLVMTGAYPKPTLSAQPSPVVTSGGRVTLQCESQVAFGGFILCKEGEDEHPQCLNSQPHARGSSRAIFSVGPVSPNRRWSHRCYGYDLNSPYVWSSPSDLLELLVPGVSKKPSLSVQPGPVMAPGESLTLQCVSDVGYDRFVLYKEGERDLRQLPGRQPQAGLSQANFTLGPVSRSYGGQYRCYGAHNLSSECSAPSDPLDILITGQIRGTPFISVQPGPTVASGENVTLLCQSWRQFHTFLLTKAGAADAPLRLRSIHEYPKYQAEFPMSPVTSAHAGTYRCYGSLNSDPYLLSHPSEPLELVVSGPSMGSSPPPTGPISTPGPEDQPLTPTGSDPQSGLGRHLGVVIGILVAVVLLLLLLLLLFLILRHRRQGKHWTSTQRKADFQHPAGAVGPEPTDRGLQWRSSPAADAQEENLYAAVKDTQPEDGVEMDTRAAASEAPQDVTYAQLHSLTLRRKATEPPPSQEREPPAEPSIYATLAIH
T1 sequence (Q8N423 22-460 limits assumed): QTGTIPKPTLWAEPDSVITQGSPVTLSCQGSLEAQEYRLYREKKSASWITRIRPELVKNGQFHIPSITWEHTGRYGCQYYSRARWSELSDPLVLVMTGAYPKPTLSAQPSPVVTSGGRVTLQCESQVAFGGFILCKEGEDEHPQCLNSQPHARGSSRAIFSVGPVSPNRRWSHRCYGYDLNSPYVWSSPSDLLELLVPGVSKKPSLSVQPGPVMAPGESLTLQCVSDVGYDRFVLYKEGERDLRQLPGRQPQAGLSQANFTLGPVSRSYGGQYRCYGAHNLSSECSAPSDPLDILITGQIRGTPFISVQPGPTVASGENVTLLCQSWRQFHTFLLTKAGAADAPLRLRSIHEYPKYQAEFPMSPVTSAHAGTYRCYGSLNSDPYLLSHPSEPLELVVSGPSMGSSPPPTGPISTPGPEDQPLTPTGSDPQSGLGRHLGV

B1: the antibody of the present invention (anti-ILT4 single-domain antibody, alpaca VHH, SEQ ID NO: 4) (VHH)
VHH: EVQLVESGGGLGQAGGSLRLSCVVSGRTFSRYAMGWFRQAPGKEREFVAAISWSPGDITTYADSVRGRFTISRDNAKNTVYLQMNSLKPEDTAVYYCAADPTAWGTQYDYWGQGTQVTVSS
notes: VHH screened from an alpaca immune library
The term Kd denotes the free concentration of one partner at which half of the binding sites on the other are occupied at equilibrium, for simple one-to-one binding. Lower therefore signals a tighter complex. One may read the EC50 as the concentration that produces a half-maximal response. For B1, in test [1], binding was characterised by a dissociation constant (Kd) of 0.107 nM. For the same molecule, the EC50 in test [2] was found to be 0.36 mg/L.
